Assay: yeast display, Sf9 membrane polyspecificity reagent, FACS + sequencing; frameworks hold sequencing errors
Summary of the method: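 In a synthetic yeast display library (Saccharomyces cerevisiae BJ5465), nanobody expression was induced with galactose for 36–48 hours. FACS gates were set low and high (top ~1%) using anti-HA fluorescence for expression and streptavidin fluorescence for binding of the Sf9 membrane reagent. Each polyreactivity label is drawn from the gate of origin.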

Row | Sequence | polyreactivity (PSR sort gate)
1 | QVQLVESGGGLVQAGGSLRLSCAASGRTFNYYNMGWYRQAPGKARELVAAISRGGTTYYADSVKGRFTISRDNAKKTVYLQMNSLKPEDTAVYYCAVAYAPRVQTVWSYVSGSTYYSSGQGTQVTVSS | high polyreactivity
2 | QDQLVDSGGGLVQAGGSLRLSCAASGIIFYRYAMGWYRQAPGKERELVATITASGGRTYYADSVKGRFTISRDNAKNTVYLQMNSLKPEDTAVYYCAAVSSYRLYSDYGYWRQGTQVTVSS | high polyreactivity
3 | QVQLVESGGGLVQAGGSLRLSCAASGRIFYKYVMGWYRQAPGNERELVATITSGGSTYYADSVKGRFTISRDNAKNTVYLQMNSLKPEDTAVYYCAARKYYSRAYDYWGQGTQVTVSS | high polyreactivity
4 | QVQLVESRGRLVQAGGSLRLSCAASGSIFVGNAMGWYRQAPGKERELVAAISSGGSTYYADSVKGRFTISRDNAKNTVYLQMNSLKPEDTAVYFGAAYYVRRYSSRPKDDYWGQGTQVSVSS | low polyreactivity
5 | QVQLVESGGGLVQAGGSLRLSCAASGSIFYYNAMGWYRQAPGTERELVAAITSSGGSTYADSVKGRFTISRDNAKNTVYLQMNSLKPEDTAVYYCATVAHGLWSGSGYIYAYDYWGQGTQVTVSS | low polyreactivity
6 | QVQLEESRGGLGQAGGSLRLICAASGRTFAYNPMGWSRQAPGKERELVSAITWSGGSTYYADSVKGRFTISRDNAKNTVYLQMNSLKPEDTAVYYCAREWFQYSPYHRFDYWGQGTQVTVSS | high polyreactivity
7 | QVQLVESGGGLVQAGGSLRLSCAASGRIFLKYTMGWYRQAPGKERELVAAISRGGSTYYADSVKGRFTISRDNAKNTVYLQMNSLKPEDTAVYYCAARRSRPTYYSTGVNYWGQGTQVTVSS | high polyreactivity
8 | QVQLVESGGGLVQAGGSLRLSCAASGSTFTWNAMGWYRQAPGKERELVAAISGDGGSTYYADSVKGRFTISRDNAKNTVYLQMNSLKPEDTAVYYCAASSAHIYSYRYNYWGQGTQVTVSS | low polyreactivity
9 | QVQLVESGGGLVQAGGSLRLRCAASGRIFRPYTMGWYRQAPGKERELVAGITSSGGGTYYADSVKGRFTISRDNAKNTVYLHMNSLKPEDSAVYYCNRRGWSRTHQYDYWGQGTQVTVSS | high polyreactivity
10 | QVQLVESGGGLVQAGGSLRLSCAASGSTFNYNAMGWYRQAPGKERELVAAITGTGGDTYYADSVKGRITISRDNAKNTVYLQMNILKPEDTAVYYCDAEEDYWGQGTQVTLSS | low polyreactivity
11 | QVQLVESGGGLVQAGGSLRLSCAASGSIFTQYAMGWYRQAPGKERELVAAISWTGGRTNYADSVKGRFTISRDTAKNTFYLQMNSLKPEDTSVYYCAATYLLRYCQGWKRMDYWGQGTQVTVSS | high polyreactivity
12 | QVQLVESGGGLVQAGGSLRLSCAASGRIFYANDMGWYRQAPGKERELVAAITNTVSTTYADSVKGRFTISRDNAKNTVYLQMNSLKPEDTAVYYCNADDPYVPKADMGYWGQGTQVTVSS | low polyreactivity
13 | QVQLVESGGGLVQAGGSLRLSCAASGNIFSDNTMGWYRQAPGKERELVAVITSGTSTSYADSVKGRFTISRDNAKNTEYFQMNSLKPEDTAVSYAARTGQYKTYGEYDYWGQGTQVTVSS | low polyreactivity
14 | QVQLVESGGGLVQAGGSLRLSCAATGIIIDSNAMGWYRQAPGKERELVAAITSGGSTKYADSVKGRFTISRDNAKNTVYLQMNSLKPEDTAVYYCAAGGSYYRDDYWGQGTQVTVSS | low polyreactivity
15 | QVQLVESGGGLVQAGGSLRLSCAASGRTFVVYAMGWYRQAPGKERELVAAISRGGSRTYYADSVKGRFTISRDNAKNTVYLQMNSLKPEDTAVYYCAKVIPAYPDSDYNYWGQGTQVTVSS | high polyreactivity
16 | QVQLVESGGGLVQAGGSLRLSCAASGFIFYHNAMGWYRQAPGKERELVAVISSGGSTYYADSVKGRFTISRDNAKNTVYLQMNSLKPEDTAVYYCAALYYGWSGSYAMDYWGQGTQVTVSS | high polyreactivity
17 | QVQLVESGGGLVQAGGSLRLSCAASGRIIPGNAMGWYRQAPGKERELVAAISWGGGSTYYADSVKGRFTISRDNAKNTVYLQMNSLKPEDTAVYYCNAGVSIGRSRRYDYWGQGTQVTVSS | low polyreactivity
18 | QVQLVESGGGLVQAGGSLRLSCAASGSTSNIYGMGWYRQAPGKERELVAGISRRGSSTYYADSVKGRFTISRDNAKNSVYLHMNSLKPEDTAVYYCNTRSGGYKHRYDYWGQGTQVTVSS | high polyreactivity
19 | QVQLVESGGGLVQAGGSLRLSCAASGRTFYKYAMGWYRQAPGKERELVAAINRIGGRTYYADSVKGRFTISRDNAKNTVYLQMNSLKPEDTAVYYCAAEFVGDNRHGYWGQGTQVTVSS | high polyreactivity
20 | QVQLQERAAWCRRAGSLLLSCAASGNISDYYFMGWYRQAPAKERELVAAIAPGSNTYYADSVQGRFTISRDNAKKTVYLQMNSLKPEDTAVCFCAANSTQYTWFDDWGQGTQVPVSS | low polyreactivity
21 | QVQLVESGGGLVQAGGSLRLSCAASGSTFDYYAMGWYRQAPAKERELVAVISRSGGSTYYADSVKGRFTISRDNAKNTVYLQMNSLKPEDTAVYYCAKSRPSKYDYWGQGTQVTVSS | high polyreactivity
22 | QVQLVESGGGLVQAGGSLRLSCAASGFTFWANAMGWYRQAPGKERELVAAISWSGGSTTYADSVKGRFTISRDNAKNTVYLQMNSLKPEETAVYYCATDYGHYVTYRLSDYWGQGTQVTVSS | low polyreactivity

Row | Sequence | polyreactivity (PSR sort gate)
23 | QVQLVESGGGLVQAGGSLRLSCAASGRIFDWNAMGWYRQAPGKERELVAAISYSDGSTYYADSVKGRFTISRDNAKNTVYLQMNSLKREDTAVYYCDADFYDRTYITWYEYWGQGTQVTVSS | high polyreactivity
24 | QVQLVESGGGLVQAGGSLRLTCAASGFIFCSYAMRWYRQAPGKERELVAAISFRGGSTFYADSVKGRFTISRDNAKNTVYLQMNSLKPEDTAVYYCNKAAYSIHSGLSYYHWGQGTQVTVSS | low polyreactivity
25 | QVQLLESGGGLVQAGGCLRLSCAASGSIFYPYALGGYRQAPGIVRELVAAISSREGRSYYADSVKGRFTISRDNGKKTVYLQMNSLKPEDTAVYYCAACSFNYGHRFYWGQGSQVTVSS | high polyreactivity
26 | QVQLVESGGGLVHAGGSLRLSCAASGFTFRWYAMGWYRQAPGKERELVARIRGGGSTNYADSVKGRFTISRDNAKNTVYLQMNSLKPEDTAVYYCNTAYPWPPVKYDYWGQGTQVTVSS | high polyreactivity
27 | QVQLVESGGGLVQAGGSLRLSCAASGSIFVRNAMGWYRQAPGKERELVAAITYRGGSTYYADSVKGRFTISRDNAKNTVYFQMNSLKPEDTAVYYCFDVNTDVLSRVYRGWGYYYWGQGTQVTVSS | low polyreactivity
28 | QVQLVESGGGLVQAGGSLRLSCAASGFIFDSNAMGWYRQAPGKERELVAAISRRGGSTYYADSVKGRFTISRDNAKNTVYLQMNSLKPEDTAVYYCNAEYGSHVKYGYWGQGTQVTVSS | high polyreactivity
29 | QVQLVESGGGLVQAGGSLRLSCAASGRISQSNAMGWYRQAPGKERELVAAISWRGGSTYYADSVKGRFTISRDNAKNTVYLQMNSLKPEDTAVYYCAVRGKYDRHYYWGQGTQVTVSS | high polyreactivity
30 | QVQLVESGGGLVQAGGSLRLSCAASGSIFRLYGMGWYRQAPGKERELVASITYRGGNTYYADSVKGRFTISRDNAKNTVYLQMNSLKPEDTAVYYCARSGYQKVGGFRYDYWGQGTQVTVSS | low polyreactivity
31 | QVQLEESGGGLVQAGGSLRISCAAAGSTFRSNAMGWYRPAPRKERELVAAINSGGSTYYADSVKGRFTISRDNAKNTVYLQMNSLKPEDTAVYYCAARYYTPFGTYRQNIRMYYWGQGTQVTVSS | high polyreactivity
32 | QVQLVESGGGLVQAGGSLRLSCAASGLTFYKNVMGWYRQAPGKERELVAAISSSGGSTYYADSVKGRFTISRDNAKNTVYLQMNSLKPDDTAVYYGAADDPLYTPYEFDYWGQGTQVTVSS | low polyreactivity
33 | QGQLVESAGGLVQAAGSLRLSCAASGITFHYYAMGWYRQAPGKERELVAAIDGSDTDTYYADSVKGRFTISRDNAKNTVYLQMNSLKQEDTAVYYCAAEYTYAALARNDDYWGQCTQVTVSS | high polyreactivity
34 | QVQLVESGGGLVQAGGSLRLSCAASGSTSPINAMGWYRQAPGKERELVAVISSSGGLTYYADSVKGRFTISRDNAKNTVYLQMNSLKPEDTAVYYCAKRFSRRQPDYDYGGQGTQVTVSS | high polyreactivity
35 | QVQLVESGGGLEQAGGSLRLSCAASGRTFQYYTMGLYRQAPGKERELVAAISTGGSTHYSDSVKGRFTISRDNAKNTVYLEMFSLKPVDTAVYYCAALWSRRRSRPRFPGDFWGQGTQLTVSS | high polyreactivity
36 | QVQLVESGGGLVQAGGSLRLSCAASGRNFGRYAMGCYRQAPGKERELVAAITGRGASTYYADSVKGRFTISRDNAKHTVYLQMNSLKPEDTAVYYCNAFRGAQGTDAYDWGQGTQVPVSS | low polyreactivity
37 | QVQLVESGGGLVQAGGSLRLSCAASGSIFTWYAMGWYRQAPGTERELVAAITRGGSTYADSVKGRFTISRDNAKNTVYLQMNSLKPEDTAVYYCNAVYGVYDFNYWGQGTQVTVSS | low polyreactivity
38 | QVQLVESGGGLVQAGGSLRLSCAASGSIFRYYAMGWYIQAPGKERELVAGITGSTGRTYYADSVKGRFTISRDNAKNTVYLQMNSLKPEDTAVYYCAARSRYYEYDYWGQGTQVTVSS | low polyreactivity
39 | QVQLVESGGGLVQAGGSLRLSCAASGIIFRQYAMGWYRQAPGKERELVAGISSRGGSTYYADSVKGRFTISRDNAKNTVYLQMNSLKPEDTAVYYCAARYPGYFYHLDYWGQGTQVTVSS | low polyreactivity
40 | QVQLVDSGGGLVQAGGSLRLSCAASGRIFGVNAMGWYRQAPGKERELVAAINFSGGGTYYADSVKGRFTISRDNAKNTVYLQMNSLKPEDTAVYYCAADGPDYKWYYELDYWGQGTQVTVSS | low polyreactivity
41 | QVQLVESGGGLVQAGGSLRLSCAASGFNFRTNAMGWYRQAPGKERELVAAISRSGNTYYADSVKGRFTISRDNAKNTVYLQMNSLKPEDTAVYYCAAQSVRWYSSFKYYYWRQGTQVTVSS | high polyreactivity
42 | QVQLVESGGGLVQAGGSLRLSCAASGRTFRYNAMVWFRQAPGKERELVAAISSGDRTNYADSVKGRFTISRDNAKNTVYLQMNSLKPEDTAVYYCAAPTDSYYEFDYWGQGTQVTVSS | low polyreactivity
43 | QVQLVESGGGLVQAGGSLRLSCAASGRIFKYYGMGWYRQAPGKERELVAAITRGDSTNYADSVKGRFTISRDNAKNTVYLQMNSLKPEDTAVYYCNVGTRRGYDYWGQGTQVTVSS | high polyreactivity
